The supplement of paper PMC10567573

B1: TIA1 (parent)
chain: TYECRCIGEEKEMWNFGEKYARF
B2: PLAGL1 (parent)
chain: CKDFLCQFCAQRFGRKDHLTRHTK

Variants of: B1
Experiment: protein stability index of a GFP-peptide fusion (GPS, HEK-293T) (PSI 1-6); higher = more stable
Conditions: c terminus: native
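Further: lentivirally expressed fusions sorted by FACS into six bins by GFP to DsRed ratio, PSI derived from sequencing read proportions per bin multiplied by bin number.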

Protein stability index: each site, then its substitutions
E10: V 1.58
R22: G 2.63 | A 1.79
I7: D 2.87
E18: W 3.12 | N 1.79
W14: D 2.61 | E 2.51 | N 2.1 | L 1.64 | V 2.34 | C 2.17 | S 2.98 | T 2.22
G8: D 1.58 | P 2.14 | H 1.46 | R 3.32
M13: H 2.24 | T 2.18 | P 2.19
A21: F 2.02 | M 1.99
C4: R 2.31 | K 3.16
F16: W 1.77 | V 2.45
K19: A 1.65 | L 1.59 | G 2.51 | Q 2.41
E9: S 1.84 | P 1.82 | M 1.33
F23: C 1.61 | Q 1.48 | N 1.87
E3: G 2.14 | A 2.23
N15: Y 1.56 | V 2.3
Y20: K 3.52 | M 3.19 | D 3.16 | N 2.26 | G 3.89
G17: P 2.15
T1: A 2.54 | H 2.31
Y2: F 4.21 | Q 3.97 | C 3.3 | A 2.94 | S 3.2 | P 3.99 | H 2.44
R5: C 1.97 | S 2.54 | F 2.1 | Y 1.35
E12: H 2.03 | Y 1.3 | T 2.19 | F 3.56
K11: D 2.38 | C 3.31 | P 2.02 | V 2.57 | Y 2.17
C6: F 3.08 | K 3.64 | P 3.72 | R 3.38 | N 3.44 | E 4.37

Variants of: B2
Experiment: as above
Conditions: c terminus: a fixed tail appended

Protein stability index: each site, then its substitutions
L5: T 1.81 | Y 1.82 | I 1.69 | R 1.43 | N 2.23 | E 2.07
T20: A 2.25 | Y 1.82 | W 1.47 | V 2.28 | F 1.83 | L 2.22 | P 1.82 | R 1.93 | G 2.17 | S 2.17 | I 1.58 | Q 1.75
C9: Q 2.72 | G 2.14 | I 2.56 | S 2.03 | A 2.05 | Y 1.47 | D 2.11 | F 1.11 | M 1.79 | P 3.17 | V 2.46 | L 2.22 | K 2.42
G14: C 2.37 | W 1.77 | D 2.14 | V 1.99 | Y 1.99 | S 2.72 | M 2.59 | A 2.63 | R 2.12 | Q 1.98 | N 2.46
H18: R 2.35 | W 1.94 | F 1.49 | G 1.95 | S 1.82 | D 1.68 | P 1.75 | M 1.64 | Y 2.45 | E 1.96
H22: I 1.76 | K 1.68 | S 2.04 | M 2.12 | F 1.65 | C 2.4 | L 1.85 | Y 2.7 | N 1.48 | A 2.03 | R 2.15 | Q 1.77 | G 2.56
Q11: I 1.82 | N 2.01 | H 1.67 | A 1.84 | K 2.02 | R 2.3 | M 2.22 | F 1.82 | S 3.17 | Y 1.51 | V 2.04
R12: V 2.33 | F 1.68 | H 2.38 | C 2.86 | M 1.94 | E 2.13 | T 1.88 | N 2.22 | A 1.97 | D 1.65 | W 2.14 | Q 1.23 | S 2.16
R15: E 2.52 | F 1.79 | C 1.82 | T 1.93 | Q 1.74 | S 1.73 | H 1.85 | D 2.24 | Y 2.38 | L 2.06 | A 1.82 | W 1.61
Q7: F 1.74 | A 2.38 | R 2.08 | D 2.2 | E 2.25 | S 1.76 | C 1.52 | H 1.96 | K 2.21 | V 2.02
K2: D 2.02 | R 2.74 | C 2.44 | Q 2.08 | Y 2.05 | I 1.78 | S 1.74 | A 1.7 | E 2.13 | W 1.7 | F 2.35 | V 1.53
C6: N 1.76 | V 1.89 | Q 2.34 | H 2.25 | G 1.84 | I 1.62 | M 1.48 | F 1.78 | D 2.17 | T 2.04 | S 1.58
F8: P 2.47 | V 2.18 | M 2.19 | Y 1.77 | K 2.69 | Q 2.51 | W 1.6 | D 3.12 | C 3.64 | T 2.81 | S 2.19 | N 2.82
T23: M 2.04 | W 1.51 | L 1.62 | R 1.95 | Q 3.45 | Y 1.77 | I 2.4 | A 2 | N 1.81
A10: E 1.69 | W 1.67 | V 2.16 | T 1.96 | K 2.48 | P 2.03 | D 1.87 | Y 2.16 | S 2.24 | M 1.65
D17: S 2.12 | K 1.94 | P 2.4 | Q 1.92 | C 2.06 | I 2.52
R21: G 2.02 | A 1.94 | L 2.1 | K 2.27 | Y 1.85 | C 2.01 | S 1.3 | I 1.82 | M 1.97 | N 2.53 | P 2.1 | W 2.16 | V 1.59
L19: Y 1.9 | F 2.58 | N 1.91 | A 2.54 | V 1.99 | P 2.02 | K 3.13 | I 2.32 | S 2.13 | M 2.4 | C 2.25 | T 3.32 | D 3.71 | E 1.99
F13: K 3.02 | L 2.44 | T 2.23 | P 2.35 | C 3.07 | Q 2.45 | Y 1.99
C1: W 1.84 | S 2.7 | Q 2.11 | K 2.11 | A 3.04 | I 2.46 | P 2.2 | D 2.31 | H 2.02
F4: N 2.64 | T 2.35 | Q 2.34 | S 2.23 | V 1.27 | G 2.02 | M 2.21 | D 1.76
K16: M 1.68 | T 2.82 | A 2.67 | D 2.35 | I 2.37 | W 2.33 | E 1.93 | G 2.15 | Q 2.62 | F 2.17 | R 2.44 | C 2.53 | Y 1.86 | S 1.95
D3: E 1.78 | G 2.38 | C 1.31 | H 2.07 | I 2.01 | Q 2.76 | T 1.77 | A 1.57 | V 2.38 | R 1.81 | K 1.48 | M 1.38 | Y 2.11
K24: E 2.3 | F 2.4 | W 2.03 | T 2.24 | M 1.74 | R 2.08 | L 1.49 | V 1.67 | Y 1.56 | D 1.73
